Consider 42 molecules from US20170189504A1.

Where only a bound is given, the exact number is not on record here.

The test addresses HLA-A*24 (human). Nature of the test: UV-ligand exchange, anti-b2m ELISA. (ELISA stands for enzyme-linked immunosorbent assay.)
TYSVSFPMF [SEQ ID NO: 195 peptide …] came in with a peptide exchange yield greater than 75%.

Molecule YYGPSLFLL [SEQ ID NO: 200 peptide …] showed a peptide exchange yield of 50 to 75%. With LYITEPKTI [SEQ ID NO: 287 peptide …] the figure was 50 to 75%; with YYVESGKLF [SEQ ID NO: 166 peptide …], greater than 75%. As for VYVSDIQEL [SEQ ID NO: 288 peptide …], the peptide exchange yield fell in the range of 50 to 75%.

As to VYWDSAGAAHF [SEQ ID NO: 202 peptide …], the peptide exchange yield is greater than 75%. With YYEVHKELF [SEQ ID NO: 175 peptide …] the figure was greater than 75%; with YYKSTSSAF [SEQ ID NO: 218 peptide …], 50 to 75%.

In turn, KFSSFSLFF [SEQ ID NO: 164 peptide …] came in with a peptide exchange yield of 50 to 75%.

For the molecule NYINRILKL [SEQ ID NO: 167 peptide …], the peptide exchange yield was greater than 75%. With IYLVSIPEL [SEQ ID NO: 161 peptide …] the figure was greater than 75%; with KYPVEWAKF [SEQ ID NO: 289 peptide …], greater than 75%; with RYLNKAFHI [SEQ ID NO: 284 peptide …], 50 to 75%. As for TFSVSSHLF [SEQ ID NO: 222 peptide …], the figure is 50 to 75%.

Molecule VYTLDIPVL [SEQ ID NO: 160 peptide …] came in with a peptide exchange yield greater than 75%. In turn, LYNKGFIYL [SEQ ID NO: 159 peptide …] registered a peptide exchange yield greater than 75%. With IYATEAHVF [SEQ ID NO: 201 peptide …] the figure was 50 to 75%. NYYEVHKELF [SEQ ID NO: 270 peptide …] gave a peptide exchange yield of 50 to 75%.

As for VYEDQVGKF [SEQ ID NO: 170 peptide …], the peptide exchange yield fell in the range of 20 to 49%. With VYQGHTALL [SEQ ID NO: 277 peptide …] the figure was greater than 75%; with VFTRVSSFL [SEQ ID NO: 162 peptide …], 50 to 75%; with DYLKGLASF [SEQ ID NO: 163 peptide …], greater than 75%. As for QYLGQIQHI [SEQ ID NO: 268 peptide …], the figure is 50 to 75%; as for TYKDEGNDYF [SEQ ID NO: 209 peptide …], 50 to 75%.

VYVGGGQIIHL [SEQ ID NO: 174 peptide …] displayed a peptide exchange yield of 50 to 75%.

Turning to TYGDAGLTYTF [SEQ ID NO: 283 peptide …], the peptide exchange yield lay in the range of 50 to 75%. With EYSLFPGQVVI [SEQ ID NO: 197 peptide …] the figure was 50 to 75%; with HYSQELSLLYL [SEQ ID NO: 158 peptide …], greater than 75%. As for DYTTWTALL [SEQ ID NO: 165 peptide …], the figure is greater than 75%; as for RYAEEVGIF [SEQ ID NO: 199 peptide …], 50 to 75%. As for KYQDILETI [SEQ ID NO: 168 peptide …], the figure is greater than 75%; as for HYPPVQVLF [SEQ ID NO: 285 peptide …], 50 to 75%. The molecule YFIDSTNLKTHF [SEQ ID NO: 269 peptide …] had a peptide exchange yield of 50 to 75%.

The molecule RYPDNLKHL [SEQ ID NO: 286 peptide …] displayed a peptide exchange yield of 20 to 49%.

Consider IYSWILDHF [SEQ ID NO: 173 peptide …], for which the peptide exchange yield is greater than 75%. In turn, EYNQWFTKL [SEQ ID NO: 176 peptide …] yielded a peptide exchange yield of 50 to 75%.

Consider AYVVFVSTL [SEQ ID NO: 207 peptide …], for which the peptide exchange yield is 20 to 49%.

As for TYELRYFQI [SEQ ID NO: 204 peptide …], the peptide exchange yield was greater than 75%. With AYTLIAPNI [SEQ ID NO: 169 peptide …], the peptide exchange yield lay in the range of 50 to 75%. PYRLIFEKF [SEQ ID NO: 281 peptide …] yielded a peptide exchange yield of 20 to 49%. For LYIDRPLPYL [SEQ ID NO: 196 peptide …], the peptide exchange yield was 50 to 75%. With LFIPSSKLLFL [SEQ ID NO: 171 peptide …] the figure was 50 to 75%.
